# Reference: publication PMC12965811 (Nature chemical biology, 2025)
# T1: Lis1^AAA5 (D192K, Y225A and C226D) (human, UniProt P43034 1-410, D192K | Y225A | C226D)
# T1 sequence (looked up): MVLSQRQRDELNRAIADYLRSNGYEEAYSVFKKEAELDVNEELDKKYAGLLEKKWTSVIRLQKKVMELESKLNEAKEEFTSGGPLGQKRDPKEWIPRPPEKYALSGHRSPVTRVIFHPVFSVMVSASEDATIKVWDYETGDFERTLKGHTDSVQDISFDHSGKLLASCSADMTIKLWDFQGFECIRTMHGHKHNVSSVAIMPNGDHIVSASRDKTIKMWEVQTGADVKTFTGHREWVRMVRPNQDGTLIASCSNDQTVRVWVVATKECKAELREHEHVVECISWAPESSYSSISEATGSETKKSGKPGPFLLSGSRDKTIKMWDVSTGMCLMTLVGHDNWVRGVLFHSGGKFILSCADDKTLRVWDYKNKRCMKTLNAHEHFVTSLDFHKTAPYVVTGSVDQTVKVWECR
# T2: human Lis1 (wild type) (human, UniProt P43034 1-410)
# T2 sequence: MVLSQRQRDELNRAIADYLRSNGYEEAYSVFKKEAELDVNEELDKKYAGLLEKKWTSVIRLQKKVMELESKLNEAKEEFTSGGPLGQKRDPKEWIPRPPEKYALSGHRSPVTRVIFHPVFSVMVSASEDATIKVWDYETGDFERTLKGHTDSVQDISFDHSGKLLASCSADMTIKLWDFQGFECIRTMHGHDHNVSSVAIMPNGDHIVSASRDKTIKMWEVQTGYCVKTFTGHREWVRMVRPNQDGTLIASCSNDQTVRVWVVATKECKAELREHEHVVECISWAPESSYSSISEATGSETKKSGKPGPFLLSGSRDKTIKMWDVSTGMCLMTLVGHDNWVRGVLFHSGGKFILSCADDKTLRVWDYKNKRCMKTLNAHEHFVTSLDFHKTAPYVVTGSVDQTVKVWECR
# T3: Lis1^AAA6 (N203K, D205K and Q222A) (human, UniProt P43034 1-410, N203K | D205K | Q222A)
# T3 sequence (looked up): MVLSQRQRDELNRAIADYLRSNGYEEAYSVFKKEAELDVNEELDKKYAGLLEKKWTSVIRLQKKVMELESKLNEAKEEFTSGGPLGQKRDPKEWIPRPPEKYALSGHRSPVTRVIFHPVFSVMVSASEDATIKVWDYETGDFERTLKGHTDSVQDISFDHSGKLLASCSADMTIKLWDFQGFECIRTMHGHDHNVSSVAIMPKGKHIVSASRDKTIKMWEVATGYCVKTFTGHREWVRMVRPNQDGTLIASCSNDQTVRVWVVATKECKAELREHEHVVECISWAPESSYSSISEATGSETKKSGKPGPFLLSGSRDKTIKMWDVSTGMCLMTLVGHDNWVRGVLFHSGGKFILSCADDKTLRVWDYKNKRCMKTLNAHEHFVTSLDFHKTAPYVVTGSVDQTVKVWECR
# T4: Lis1^All (D192K, D205K, E300A and K303A) (human, UniProt P43034 1-410, D192K | D205K | E300A | K303A)
# T4 sequence (looked up): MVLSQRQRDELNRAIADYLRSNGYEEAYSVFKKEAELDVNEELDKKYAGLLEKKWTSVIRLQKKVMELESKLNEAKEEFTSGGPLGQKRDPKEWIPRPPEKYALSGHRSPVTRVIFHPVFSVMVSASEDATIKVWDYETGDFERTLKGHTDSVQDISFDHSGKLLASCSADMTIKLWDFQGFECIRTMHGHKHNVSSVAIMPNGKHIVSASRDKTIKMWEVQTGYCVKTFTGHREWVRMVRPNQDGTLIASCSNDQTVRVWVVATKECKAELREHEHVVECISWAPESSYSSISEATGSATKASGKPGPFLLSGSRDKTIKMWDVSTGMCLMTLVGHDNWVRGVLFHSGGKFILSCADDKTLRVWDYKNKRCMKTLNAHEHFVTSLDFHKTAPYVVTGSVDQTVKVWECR
# B1: human Nde1 (N-terminal residues 1–190) (domain or fragment, UniProt Q9NXR1 1-190, looked up)
# chain: MEDSGKTFSSEEEEANYWKDLAMTYKQRAENTQEELREFQEGSREYEAELETQLQQIETRNRDLLSENNRLRMELETIKEKFEVQHSEGYRQISALEDDLAQTKAIKDQLQKYIRELEQANDDLERAKRATIMSLEDFEQRLNQAIERNAFLESELDEKENLLESVQRLKDEARDLRQELAVQQKQEKPR
# Columns and labels:
# [1] = target: full-length human cytoplasmic dynein 1 (wild type) (human) (UniProt Q14204); experiment: cryo-EM structure
# [2] = target: full-length human cytoplasmic dynein 1 (wild type) (human) (UniProt Q14204); experiment: mass photometry
# [3] = target: T1, Lis1^AAA5 (D192K, Y225A and C226D); experiment: mass photometry
# human Lis1 (wild type) = target: T2, human Lis1 (wild type); experiment: mass photometry
# [4] = target: T3, Lis1^AAA6 (N203K, D205K and Q222A); experiment: mass photometry
# [5] = target: T4, Lis1^All (D192K, D205K, E300A and K303A); experiment: mass photometry
Molecule,percent of autoinhibited dynein particles in the Phi^L–Lis1 conformation [1] [%],stoichiometry N (Lis1 dimer per dynein) [1],"percent of 1:1 dynein:Lis1 complex (no Nde1, within 60 min) [2] [%]","percent of complex formation (with Nde1, within a minute) [2] [%]",stoichiometry N (Lis1 dimer per dynein dimer) [2],stoichiometry N (Lis1 dimer per dynein) [2],binding result [3],binding result (human Lis1 (wild type)),binding result [4],binding result [5]
human Lis1 (wild type) (from UniProt P43034 1-410) (natural protein),57.3,1,37,69,1,1,–,–,–,–
B1,–,–,–,–,–,–,binds,binds,binds,binds
